Test system: Saccharomyces cerevisiae
Assay: transcriptional activation domain activity (GFP:mCherry ratio, weighted mean of sorted bins, harmonized to initial dataset scale) (arbitrary fluorescence ratio units); higher = stronger transcriptional activation
Conditions: beta-estradiol 1 µM; induction time 4 h
Method in brief: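 After a 1:5 dilution into SC with 1 uM beta-estradiol and 4 hours at 30 °C, yeast diploids carrying a GFP reporter and URA3-integrated barcoded tiles were sorted into 8 bins by GFP:mCherry ratio. The tiles were fused to an estradiol-inducible synthetic transcription factor. Barcodes were sequenced, tiles below 50 reads were discarded, and activation activity was taken as the read-weighted mean of bin median fluorescence, averaged across barcodes and linearly mapped onto the initial dataset scale.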

Row | Sequence | transcriptional activation domain activity
1 | GQTHVHFFPSLSHFYPLFFSFYNVLYPPCLYVRICPISLLLLLWWCFYLTFFC | 44100
2 | GQVELFTHHTSLRHIFFRLEKLGYRLVVIQLTDSFVISQPSLYISALLLALRG | 35400
3 | GRADARRGRRRRGGGGEGRRGTGDGGRGKTRGGEAGKERRTENRGARGGATRG | 39600
4 | GRAESPYNAKYLTGAFSSGSSNGAATATAASFAVFGMGSETVSSGRSPASNNA | 44500
5 | GREANDAAQKQRKREGARAARDGNRSAKEGNGRQDAGSRKKAGDGEGGGAERG | 20600
6 | GREGKKHRDRDGSSRGSSSKEKRRERSDGKKHREKSEGGKHREGRSREGRRED | 44700
7 | GRGKESLLVLSGCSLIQIPVPVWGYHIAFVVCQKYYGSHLGIVHLILPFAFTI | 47800
8 | GRGRGGRGAGARGRGGTGEEGEGAGGKQERGQGGRGKERGGEGGGERGQGGRG | 28000
9 | GRGVKAGGGPRDREGGERGRERGEEGGEEGARRKEGDSRKEPAGGERREREEG | 33400
10 | GRHFLAGVLEGLPYVMPLFAPTVNSYKRLVENFWAPVTVSWGLEHRIASIRLI | 32600
11 | GRHPEQHGVRYSLSKDSGATIVDIYLAHLLECLIPVVGRLKSVVSNLGTMRQT | 78200
12 | GRILIMLFLWLILRLQIRIVVREVLSRPCCCPFSTITSCAALEQYQRVYDQTA | 36700
13 | GRIMERSGGWLVLVSHFSYFLNWVLVLFLLFFGGYAYVYYLCISSLLFPFTSF | 48800
14 | GRKILNVFALVFFFINLFLFCLFLALTMCRYAMFPRLWGLMLRDPVQSLYLGC | 46700
15 | GRKKRAVKKKAEGAGAGAGGGGGGAEAEGKVETKGKKAAKPKSRTKAGAKAKG | < 6570
16 | GRKPAAKPTPRNSSTTARGRKAKSEPESEDDKPLAKKGGAAATKQTKKPAVKK | 22300
17 | GRMIRMWKRWSVMAHGMNRLKHYANYLPRLIVLLNKTLPQDVADIIKFNMLVC | 39100
18 | GRNAGREDNSNNRNRRGDRRGAPREARAGGNTNGQQQQQQKKGGAPKAAAVDP | 35600
19 | GRNKRREKRPEEETTRQRRKGKREEQERRRTTKAGTKAEKRGEERRASGDANE | 23100
20 | GRPAKSQAEEPVEAAPEPKKRDRQANVAPEPVIEEAPVVKKGRGRPKKDAVTV | 29600
21 | GRPPRSSNESPEAKPAKRARKKAPTEEPEAEVLEDVKPKRGRARVAKKTTADV | 22400

Row | Sequence | transcriptional activation domain activity
22 | GRQSKDGKEGKEGKEGSGERRREEKKEAGRERGGEEGGKEGRGRQRAGASGGE | 25500
23 | GRRGSKAVPGEVSEAEANGDAPQTEATPAPESDDAAKPKKKKKSKAARKAKKA | 36100
24 | GRRHCNYVQGWLWLSLFSYVCVTYVLSIYISMSFFFWNIAVFLFYFIFVGLLG | 40500
25 | GRRRDNGGRRQGGGRRDGGGGGGGGGGRGRGERGGGGGERGERGGGARPKKTQ | 34900
26 | GRRRRKGEESRGRKNAEERKGGRKEGPGAGRVEAEGRAEATRTEKGEEGGSGG | 34800
27 | GRRRVWTSLLDRGAGGEGGAGYVCGVTIDEGSNISGDHIQSTCILVDEYCELC | 74500
28 | GRSESQSANNNGNNARGGKTGGGEAAAGGKTSASRGPRGGRGAKNKGSGGSKG | 28700
29 | GRTLSRYEPTNVCVVLILIWLGIYHYFLQVLQVRTHATARKIVLLYGWYTLRI | 53400
30 | GRTNVALPIYLFVFGELIDAYENRHIHHMDRIKMVLRMWFFKSIWKSFLQGAG | 56300
31 | GRWSYLRTSEMILTFFYKNIMWTLVLFWYQLMCGFTGTMMFDYSYITLYNLVF | 46300
32 | GRWSYLRTSEMILTFFYKNIMWTLVLFWYQLMCSFTGTMMFDYSYITLYNLVF | 63400
33 | GSAAKAGAGTGAGKAAAGGKTSAAATARGGGGAGAGGGKGAGGASAKAGTGGG | 31600
34 | GSAFGQSAFGKPATGAFGAPTSAFGSNTTTNNNTTTTSSAFGSSTATSAFGSA | 14300
35 | GSDAPASGRAKSKTPKATGAKNGGKGGKGDATEEAEAKREEGGEEKRAAKKSK | 20000
36 | GSEDESEGSEDESSEDEEDEEKALDKKMEIQDQTNTNLVNLRKTIYLTIMSSI | 43400
37 | GSEDRRKSSRSRDRRERRSRSRDKSHRDRERERDKDRERRHRDHEPRHSHRDR | 43300
38 | GSEEDAARAASTSRKRRRASAPRTGDGSDDERESSRAEASAGAGAGAEAKPRR | 18600
39 | GSEIVDGDEESSPDGVRIKAESGSSAPVATSSALPPQGGYIGRLNVRKSGKIE | 29800
40 | GSELEVKKPSKKRAPKKAAKKEEYEGSEMDEKPAPKRRAPARSTKKAAKKEEA | 15800
41 | GSERRERRSERRRSRDRSGERRRSKREEGSSRRPQSPEDEDRQQRRHRRHRHR | 16500
42 | GSETTQEQRNIEGTDHGSGGGGGGSGEGGGGNEGGGGGGGGGSGGGGKGGGGE | 30000

Row | Sequence | transcriptional activation domain activity
43 | GSFVGFLFCFVDFGFWILEFSFFFSWMPAGVLSFWMVASQWGKADDIFFSLFF | 50600
44 | GSHQGKEAKKEEGKKEEGKDKKEEEEGKKGGKKGGKKGGKGGKGKKTGETEAS | 38000
45 | GSIDITRLGLSFTIIGDLWRQVWWAMLGRDEFASLRKNVSYSRQSLQNLLVTM | 61800
46 | GSKGAMRARAEERGEGGEGGEREEGREGRGERRGGGRGGEGRERERGGREGRG | 25000
47 | GSKIILVVEQCMCVVIWGCKVCFLLIFWKLAWGLRVRLLIKLVASYVVATFLV | 65900
48 | GSKMLTEFKKKLRLDYFMLLDLRLWKDMRMCLRKLFISTLIANLSYKRILGLR | 61700
49 | GSKTRSTTSRDRSVRNDDKKSTTSGRRSVVSGSKEERRRRSSKKSVPAASETA | 34600
50 | GSMGKVKLGVSSISGEKVAIKIIPRFTSTAAAHRPPPPTPSNEPSGSSRRPSS | 7050
51 | GSNIQWLVTKWREMGCRKGPIELTKFLTGLLCVNPFSLTPEKGARLLIKLLSI | 62200
52 | GSRGGRGGRGGSGGRGGRGGSSGGGGRESSGGRSERGGRRGGSGASGTKRLGK | 15100
53 | GSRRPRKDKSHKKKDRSSGDGTEKERKHRDRGDKGDRERAKSRERGEKGKRDR | 20500
54 | GSSAEGEGDKEKTAVKRKRDSQVTGQQQQQQQQRADSSNRATSRKRRKTNKEG | 60100
55 | GSSAFGASGSSGGAFGQPAAQQQQSAFGGGGGLFGKPQGSSFGSTALATTAGQ | 55800
56 | GSSDGGSHNAPGAPRPMALRALITTKEAGVIIGKNGKNVAEMREQSGAKITVS | 48900
57 | GSSGRRVRILGVCGLGRNYVMMRVIELGGILEGEVTIRRMAVSSHPSSVWIAT | 67500
58 | GSSGSGAGSKGGPAPRGSSAKRSSGSGSGGGGRKGGGSAGKGSGGGGGRGRSG | 28600
59 | GSSQNTDQPHKSRKKRQREQDEDDTSTNKRSHRKSKKHKSSRKHKSSRKTAKT | 25100
60 | GSSTTPARCTSARTMRSASYGASKYKGREGKVTQVYRKKWVIHVQRDKVGQVR | 83200
61 | GSTHPRQVFDQLDDCSSILFSPLTTNTNNEFEGESDDFVHSPYLNSEADFSQI | 75200
